From paper doi:10.1101/2023.07.08.548221

Target: strep-CsoS1A (hexameric shell protein CsoS1A) (Halothiobacillus neapolitanus) (UniProt P45689)
Test: turbidity

UniProt P45689, sequence (P45689 whole entry): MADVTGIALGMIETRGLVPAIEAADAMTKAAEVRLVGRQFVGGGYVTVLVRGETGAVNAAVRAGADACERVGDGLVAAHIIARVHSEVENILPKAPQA

- fold turbidity with CsoS1A against wtMR: 5 fold
Substance: His-CsoS2B (full-length CsoS2, long form) (from UniProt O85041-1 1-869) (natural protein)
